Measured values published in US9327008B2, “Cell-permeant peptide-based inhibitor of kinases” (Purdue Research Foundation, priority 2008, dated 2016).

How the values were obtained:
Format in all cases: biochemical
[1] = target: T1, c-Kit (Homo sapiens, UniProt P10721); test: Millipore radiometric kinase activity assay, c-Kit (h)
T1 construct: purchased Millipore (assay service)
Experimental: (§1) A commercial radiometric assay service (Millipore, Billerica, Mass.) was used to test the specificity and potency of peptides containing a coupled transduction domain and therapeutic domain, hereinafter “complete peptides”). In these assays, if the kinase is not inhibited by an inhibitor peptide, a positively charged substrate is phosphorylated with a radiolabeled phosphate group from an ATP.
(§2) In a final reaction volume of 25 μL, c-Kit (h) (5-10 mU) is incubated with 8 mM MOPS pH 7.0, 0.2 mM EDTA, 10 mM MnCl2, 0.1 mg/mL poly(Glu, Tyr) 4:1, 10 mM MgAcetate and [γ-^33P-ATP] (specific activity approx. 500 cpm/pmol, concentration as required). The reaction is initiated by the addition of the MgATP mix. After incubation for 40 minutes at room temperature, the reaction is stopped by the addition of 5 μL of a 3% phosphoric acid solution. 10 μL of the reaction is then spotted onto a Filtermat A and washed three times for 5 minutes in 75 mM phosphoric acid and once in methanol prior to drying and scintillation counting.
(§3) IC50 values for inhibitor peptides were determined using Millipore's IC50Profiler Express service. The IC50 value was estimated from a 10-point curve of one-half log dilutions. For peptides tested for specificity, the concentration of the peptides that inhibited approximately 95% of MK2 activity was chosen to profile against a battery of kinases related to MK2, cell viability, or human disease from MilliporeKinaseProfiler service. In both assays, compounds were supplied in dimethylsulfoxide (DMSO). Every kinase activity measurement was conducted in duplicate.
(§4) Therapeutic inhibitor peptides were assayed for activity against human kinases related to MK2, cell viability, or human disease. The assays were performed using concentrations of therapeutic inhibitor peptides that yielded 2% to 8% of normal MK2 activity. Error is reported as the standard deviation between 2 samples, and “c” is rat AMPK whereas all other kinases used are human kinases.

[2] = target: T2, PDGFRβ (Homo sapiens, UniProt P09619); test: Millipore radiometric kinase activity assay, PDGFRβ (h)
T2 construct: purchased Millipore (radiometric assay service)
Experimental: as §1
as §2, with “PDGFRβ” for “c-Kit”, “EDTA,” for “EDTA, 10 mM MnCl2,”, “4:1, 10 mM MnCl2,” for “4:1,”
as §3, §4

[3] = target: T3, PKG1α (Homo sapiens, UniProt Q13976); test: Millipore radiometric kinase activity assay, PKG1α (h); conditions: peptide 100 μM
T3 construct: purchased Millipore (radiometric assay service)
T3 sequence (Q13976 1-671): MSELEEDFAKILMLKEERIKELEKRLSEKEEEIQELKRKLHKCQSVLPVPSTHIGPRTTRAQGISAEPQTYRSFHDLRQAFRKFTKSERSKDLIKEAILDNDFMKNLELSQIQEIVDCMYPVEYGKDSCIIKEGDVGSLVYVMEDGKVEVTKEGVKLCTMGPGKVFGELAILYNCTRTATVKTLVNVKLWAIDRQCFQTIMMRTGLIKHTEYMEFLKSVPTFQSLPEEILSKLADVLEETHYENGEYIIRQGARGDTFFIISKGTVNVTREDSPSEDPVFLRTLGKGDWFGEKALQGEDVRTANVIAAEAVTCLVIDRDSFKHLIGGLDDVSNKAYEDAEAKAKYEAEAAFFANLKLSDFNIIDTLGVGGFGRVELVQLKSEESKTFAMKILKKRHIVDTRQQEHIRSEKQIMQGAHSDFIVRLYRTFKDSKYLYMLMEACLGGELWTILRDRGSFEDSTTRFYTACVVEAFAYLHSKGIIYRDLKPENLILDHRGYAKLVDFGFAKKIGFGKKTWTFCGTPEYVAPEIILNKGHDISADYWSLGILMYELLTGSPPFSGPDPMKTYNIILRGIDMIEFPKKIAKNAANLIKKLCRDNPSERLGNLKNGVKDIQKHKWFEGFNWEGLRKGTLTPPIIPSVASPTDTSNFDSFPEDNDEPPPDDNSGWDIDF
Experimental: as §1
as §2, with “PKG1α” for “c-Kit”, “μM cGMP, 200 μM […] [SEQ ID NO: 62],” for “mM MnCl2, 0.1 mg/mL poly(Glu, Tyr) 4:1,”, “P30 filtermat” for “Filtermat A”
IC50 values for inhibitor peptides were determined using Millipore's IC50Profiler Express service. The IC50 value was estimated from a 10-point curve of one-half log dilutions. […]

T1 sequence (P10721 26-976): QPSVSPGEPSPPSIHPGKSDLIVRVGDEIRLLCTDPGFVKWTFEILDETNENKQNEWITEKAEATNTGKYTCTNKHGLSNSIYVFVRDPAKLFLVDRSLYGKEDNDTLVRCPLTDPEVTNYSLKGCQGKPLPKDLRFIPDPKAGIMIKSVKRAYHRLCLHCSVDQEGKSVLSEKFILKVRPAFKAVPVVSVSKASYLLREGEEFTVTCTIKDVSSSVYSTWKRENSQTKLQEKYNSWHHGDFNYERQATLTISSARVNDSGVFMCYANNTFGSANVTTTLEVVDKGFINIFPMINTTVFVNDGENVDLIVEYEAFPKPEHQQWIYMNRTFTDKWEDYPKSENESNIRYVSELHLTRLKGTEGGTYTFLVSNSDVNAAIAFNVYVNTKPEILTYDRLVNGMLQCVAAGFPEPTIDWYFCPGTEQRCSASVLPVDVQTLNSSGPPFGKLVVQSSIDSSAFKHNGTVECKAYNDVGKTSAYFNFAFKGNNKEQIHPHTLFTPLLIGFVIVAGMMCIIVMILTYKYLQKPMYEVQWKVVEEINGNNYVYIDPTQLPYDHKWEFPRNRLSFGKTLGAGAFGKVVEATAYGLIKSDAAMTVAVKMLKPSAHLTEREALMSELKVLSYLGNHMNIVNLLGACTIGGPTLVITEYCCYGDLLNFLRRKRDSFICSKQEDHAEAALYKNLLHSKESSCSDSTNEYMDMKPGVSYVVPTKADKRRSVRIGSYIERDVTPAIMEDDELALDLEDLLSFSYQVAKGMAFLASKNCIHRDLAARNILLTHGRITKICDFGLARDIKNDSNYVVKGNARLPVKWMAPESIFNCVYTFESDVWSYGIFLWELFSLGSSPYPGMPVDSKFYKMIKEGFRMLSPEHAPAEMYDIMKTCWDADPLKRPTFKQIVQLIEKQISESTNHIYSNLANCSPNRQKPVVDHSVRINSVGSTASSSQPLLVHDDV
T2 sequence (P09619 33-1106): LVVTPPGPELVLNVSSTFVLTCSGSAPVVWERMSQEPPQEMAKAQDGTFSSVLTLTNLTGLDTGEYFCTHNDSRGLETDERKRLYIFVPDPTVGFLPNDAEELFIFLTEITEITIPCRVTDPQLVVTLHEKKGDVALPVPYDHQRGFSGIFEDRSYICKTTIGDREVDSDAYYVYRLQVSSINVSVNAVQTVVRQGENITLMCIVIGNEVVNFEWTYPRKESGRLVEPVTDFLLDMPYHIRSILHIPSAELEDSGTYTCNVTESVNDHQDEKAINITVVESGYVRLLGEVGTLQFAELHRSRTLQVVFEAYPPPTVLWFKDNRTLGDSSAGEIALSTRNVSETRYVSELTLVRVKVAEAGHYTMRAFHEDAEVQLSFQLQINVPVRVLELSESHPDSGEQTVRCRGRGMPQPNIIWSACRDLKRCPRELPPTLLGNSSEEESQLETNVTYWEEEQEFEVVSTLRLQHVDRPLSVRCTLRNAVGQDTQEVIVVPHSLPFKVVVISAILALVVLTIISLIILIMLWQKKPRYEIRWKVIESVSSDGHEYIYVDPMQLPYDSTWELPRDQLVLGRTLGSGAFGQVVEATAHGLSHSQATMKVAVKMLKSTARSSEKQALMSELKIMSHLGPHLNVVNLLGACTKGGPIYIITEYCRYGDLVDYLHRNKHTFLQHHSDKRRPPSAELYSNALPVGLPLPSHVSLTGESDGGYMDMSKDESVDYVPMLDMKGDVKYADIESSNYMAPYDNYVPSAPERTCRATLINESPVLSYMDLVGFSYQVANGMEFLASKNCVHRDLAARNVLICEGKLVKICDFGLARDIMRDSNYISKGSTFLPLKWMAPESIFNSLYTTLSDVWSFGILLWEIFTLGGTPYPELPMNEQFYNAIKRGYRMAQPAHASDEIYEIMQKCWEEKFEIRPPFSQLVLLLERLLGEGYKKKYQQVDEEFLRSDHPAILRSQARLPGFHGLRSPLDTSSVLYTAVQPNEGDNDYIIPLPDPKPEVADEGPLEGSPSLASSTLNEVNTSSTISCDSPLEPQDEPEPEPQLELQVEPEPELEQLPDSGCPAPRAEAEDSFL

Sequence | cKit Kinase Activity (%) (+SD %) ([1]; peptide 30 μM) | cKit Kinase Activity (%) (+SD %) ([1]; peptide 100 μM) | PDGFRβ Kinase Activity (%) (+SD %) ([2]; peptide 30 μM) | PDGFRβ Kinase Activity (%) (+SD %) ([2]; peptide 100 μM) | PKG1α Kinase Activity (%) (+SD %) [3]
WLRRIKAWLRRIKALNRQLGVAA | 23 (2) % | 42 (3) % | 42 (4) % | 92 (4) % | 12 (2) %
KAFAKLAARLYRKALARQLGVAA | – | 31 (6) % | – | 66 (8) % | 25 (2) %
